{
  "source": "patent US20100113582A1",
  "key": {"[1]": {"target": "HIV-PRD29N^YFP (HIV-1 (HIV-1NL4-3)) (UniProt P12497)", "assay": "FRET-HIV-1 assay, co-transfected Cos-7 cells"}, "[2]": {"target": "HIV-PRT26A^YFP (HIV-1 (HIV-1NL4-3)) (UniProt P12497)", "assay": "FRET-HIV-1 assay, co-transfected Cos-7 cells"}, "[3]": {"target": "HIV-PRR87K^YFP (HIV-1 (HIV-1NL4-3)) (UniProt P12497)", "assay": "FRET-HIV-1 assay, co-transfected Cos-7 cells"}, "[4]": {"target": "HIV-PRD29A^YFP (HIV-1 (HIV-1NL4-3)) (UniProt P12497)", "assay": "FRET-HIV-1 assay, co-transfected Cos-7 cells"}, "[5]": {"target": "YFP-tagged wild-type HIV-1 protease subunit (PRWT^YFP) (HIV-1 (HIV-1NL4-3)) (UniProt P12497)", "assay": "FRET, acceptor photobleaching, co-transfected Cos-7 cells"}, "[6]": {"target": "YFP-tagged wild-type HIV-1 protease subunit (PRWT^YFP) (HIV-1 (HIV-1NL4-3)) (UniProt P12497)", "assay": "FRET, acceptor photobleaching, co-transfected Cos-7 cells (n=23)"}, "[7]": {"target": "YFP-tagged wild-type HIV-1 protease subunit (PRWT^YFP) (HIV-1 (HIV-1NL4-3)) (UniProt P12497)", "assay": "FRET, acceptor photobleaching, co-transfected Cos-7 cells, no-drug control of FIG. 2D"}, "[8]": {"target": "YFP-tagged wild-type HIV-1 protease subunit (PRWT^YFP) (HIV-1 (HIV-1NL4-3)) (UniProt P12497)", "assay": "FRET, acceptor photobleaching, co-transfected Cos-7 cells, no-drug control of FIG. 2F"}},
  "data": [
    {"substance": "HIV-PRD29N^CFP (from UniProt P12497) (enzyme)", "values": [
      {"measurement": "average CFP A/B ratio", "setting": "[1]", "result": "< 1"}
    ]},
    {"substance": "HIV-PRT26A^CFP (from UniProt P12497) (enzyme)", "values": [
      {"measurement": "average CFP A/B ratio", "setting": "[2]", "result": "< 1"}
    ]},
    {"substance": "HIV-PRR87K^CFP (from UniProt P12497) (enzyme)", "values": [
      {"measurement": "average CFP A/B ratio", "setting": "[3]", "result": "< 1"}
    ]},
    {"substance": "HIV-PRD29A^CFP (from UniProt P12497) (enzyme)", "values": [
      {"measurement": "average CFP A/B ratio", "setting": "[4]", "result": "< 1"}
    ]},
    {"substance": "CFP-tagged wild-type HIV-1 protease subunit (PRWT^CFP) (from UniProt P12497) (enzyme)", "values": [
      {"measurement": "CFP^A/B ratio", "setting": "[5]", "result": 1.38},
      {"measurement": "YFP^A/B ratio", "setting": "[5]", "result": 0.17},
      {"measurement": "ratio of CFP fluorescence after photobleaching to CFP fluorescence prior to photobleaching", "setting": "[5]", "result": 1.19},
      {"measurement": "CFP^A/B ratio", "setting": "[6]", "result": 1.24},
      {"measurement": "YFP^A/B ratio", "setting": "[6]", "result": 0.47},
      {"measurement": "ratio of ECFP fluorescence after photobleaching to before photobleaching", "setting": "[7]", "result": 1.27},
      {"measurement": "FRET ratio", "setting": "[8]", "result": 1.29}
    ]}
  ]
}
